Results: patent publication US7229806B2, “Microbial conversion of glucose to para-hydroxystyrene” (E. I. du Pont de Nemours and Company, priority 2002, dated 2007)
Residue numbers refer to the chain shown, from its start.

What was measured:
E. coli NST74 = experiment: Toxicity of pHCA and pHS to the cells; type: cell-based; settings: previous studies
[1] = biological target: TAL activity of the PAL/TAL enzyme (Rhodotorula toruloides, UniProt P11544); experiment: Inhibition of TAL activity by pHCA; type: biochemical, R. glutinis
Source text: (§1) An E. coli strain containing the wild type pal/tal gene (PAL/TAL ratio of 2.0) uses both PAL and TAL routes to convert glucose to both CA and pHCA. […] Based on the kinetic information it is expected that the presence of phenylalanine would interfere with the TAL activity of the enzyme.

[2] = TAL/PAL activity ratio of wild type and mutant PAL/TAL enzymes, separate TAL and PAL measurements in whole cells; type: biochemical; settings: ratio of TAL catalytic activity to PAL catalytic activity
Method: In order to select for those mutants having genes encoding proteins with enhanced TAL activity, a selection system based on the reversibility of the tyrosine to PHCA reaction was developed. It will be appreciated that the TAL activity responsible for the conversion of tyrosine to pHCA is in a state of equilibrium with the opposite reaction. Mutant genes were cloned by standard methods into E. coli tyrosine auxotrophs, unable to grow in the absence of tyrosine. Transformants were plated on tyrosine minus medium in the presence of suitable concentrations of pHCA. Those colonies which grew under these conditions were picked and analyzed for the presence of the mutant gene. In this fashion, a gene was isolated that expressed an enzyme having a catalytic efficiency of about 12.6×10^3 M^−1sec^−1 and a ratio of TAL catalytic activity to PAL catalytic activity of 1.7 compared to 0.5 for the wild type.
A simple method is disclosed that relies on separate measurements of the TAL and PAL activities in whole cells. The ratio of TAL to PAL activity then may be calculated and quickly compared to wild type activity, to monitor changes in the bio-catalyst activity.
Using the above approach Applicants have identified a variety of mutant PAL enzymes that have increased TAL activity, compared to the wild type gene. These mutants were identified using the methods of mutagenesis and screening described above. The mutants, the altered amino acid residues, and the TAL/PAL activity are summarized below.

[3] = Characterization of purified PDC enzymes (pHCA as substrate); type: biochemical; settings: PDC enzyme
Method: The reaction was initiated by the addition of 1.0 μL of enzyme to a 1.0 mL solution containing 25 mM phosphate buffer, pH 6.0, and 0.2 mM pHCA in a plastic, UV transparent cuvette. The reaction was then followed for 5 minutes spectrophotometrically at 315 nm at room temperature, using a molar extinction coefficient of […] for pHCA disappearance. The specific activity was expressed as micromoles of pHCA degraded per minute per milligram of protein.
The characteristics of the PDC enzymes isolated from L. plantarum and B. subtilis were obtained using standard spectrometric and electrophoretic techniques and are listed in Table 5.

[4] = Kinetic studies with the PAL/TAL enzyme (Vmax, PAL/TAL ratio); type: biochemical
Source text: as §1

## C=Cc1ccc(O)cc1 [pHS, para-Hydroxystyrene]
E. coli NST74
  toxic to the cells: toxic
E. coli NST74; as low as
  concentration showing toxicity to the cells: ≥ 500 µg/mL

## O=C(O)C=Cc1ccc(O)cc1 [pHCA, para-Hydroxycinnamic acid]
[1]
  Ki: 16 µM
E. coli NST74
  toxic to the cells: toxic

B1: RM492-1: mutant TAL enzyme, SEQ ID NO:18 (protein)
chain: MAPSLDSISHSFANGVASAKQAVNGASTNLAVAGSHLPTTQVTQVDIVEKMLAAPTDSTLELDGYSLNLGDVVSAARKGRPVRVKDSDEIRSKIDKSVEFLRSQLSMSVYGVTTGFGGSADTRTEDAISLQKALLEHQLCGVLPSSFDSFRLGRGLENSLPLEVVRGAMTIRVNSLTRGHSAVRLVVLEALTNFLNHGITPIVPLRGTISASGDLSPLSYIAAAISGHPDSKVHVVHEGKEKILYAREAMALFNLEPVVLGPKEGLGLVNGTAVSASMATLALHDAHMLSLLSQSLTAMTVEAMVGHAGSFHPFLHDVTRPHPTQIEVAGNIRKLLEGSRFAVHHEEEVKVKDDEGILRQDRYPLRTSPQWLGPLVSDLIHAHAVLTIEAGQSTTDNPLIDVENKTSHHGGNFQAAAVANTMEKTRLGLAQIGKLNFTQLTEMLNAGMNRGLPSCLAAEDPSLSYHCKGLDIAAAAYTSELGHLANPVTTHVQPAEMANQAGNSLALISARRTTESNDVLSLLLATHLYCVLQAIDLRATEFEFKKQFGPAIVSLIDQHFGSAMTGSNLRDELVEKVNKTLAKRLEQTNSYDLVPRWHDAFSFAAGTVVEVLSSTSLSLAAVNAWKVAAAESAISLTRQVRETFWSAASTSSPALSYLSPRTQILYAFVREELGVKARRGDVFLGKQEVTIGSNVSKIYEAIKSGRINNVLLKMLA
modifications: not fully specified
[2]
  TAL/PAL ratio: 2.0

B2: L. plantarum: para-hydroxycinnamic acid decarboxylase (pdc1) from L. plantarum, SEQ ID NO:4, expressed in E. coli and purified (protein, listed as Lactobacillus plantarum)
chain: MTKTFKTLDDFLGTHFIYTYDNGWEYEWYAKNDHTVDYRIHGGMVAGRWVTDQKADIVMLTEGIYKISWTEPTGTDVALDFMPNEKKLHGTIFFPKWVEEHPEITVTYQNEHIDLMEQSREKYATYPKLVVPEFANITYMGEGQNNEDVISEAPYKEMPNDIRNGKYLIKTTIV
[3]
  Km: 1400 µM

B3: Wild Type PAL: wild type phenylalanine-tyrosine ammonia lyase (pal/tal) enzyme from R. glutinis, SEQ ID NO:2 (protein, listed as Rhodotorula glutinis)
chain: MAPSLDSISHSFANGVASAKQAVNGASTNLAVAGSHLPTTQVTQVDIVEKMLAAPTDSTLELDGYSLNLGDVVSAARKGRPVRVKDSDEIRSKIDKSVEFLRSQLSMSVYGVTTGFGGSADTRTEDAISLQKALLEHQLCGVLPSSFDSFRLGRGLENSLPLEVVRGAMTIRVNSLTRGHSAVRLVVLEALTNFLNHGITPIVPLRGTISASGDLSPLSYIAAAISGHPDSKVHVVHEGKEKILYAREAMALFNLEPVVLGPKEGLGLVNGTAVSASMATLALHDAHMLSLLSQSLTAMTVEAMVGHAGSFHPFLHDVTRPHPTQIEVAGNIRKLLEGSRFAVHHEEEVKVKDDEGILRQDRYPLRTSPQWLGPLVSDLIHAHAVLTIEAGQSTTDNPLIDVENKTSHHGGNFQAAAVANTMEKTRLGLAQIGKLNFTQLTEMLNAGMNRGLPSCLAAEDPSLSYHCKGLDIAAAAYTSELGHLANPVTTHVQPAEMANQAVNSLALISARRTTESNDVLSLLLATHLYCVLQAIDLRAIEFEFKKQFGPAIVSLIDQHFGSAMTGSNLRDELVEKVNKTLAKRLEQTNSYDLVPRWHDAFSFAAGTVVEVLSSTSLSLAAVNAWKVAAAESAISLTRQVRETFWSAASTSSPALSYLSPRTQILYAFVREELGVKARRGDVFLGKQEVTIGSNVSKIYEAIKSGRINNVLLKMLA
[4]; previous kinetic studies
  Vmax for PAL: 5.5
  Vmax for TAL: 0.76
[4]; wild type pal/tal gene in E. coli
  PAL/TAL ratio: 2.0
[2]
  TAL/PAL ratio: 0.5

B4: RM120-1: mutant TAL enzyme, SEQ ID NO:14 (protein)
chain: B3 chain with D126X, Q138X, I540X
modifications: Mutant from Rhodotorula glutinis
[2]
  TAL/PAL ratio: 7.2

B5: RM120-4: mutant TAL enzyme, SEQ ID NO:16 (protein)
chain: B3 chain with S181X, V235X, I540X
modifications: Mutant from Rhodotorula glutinis
[2]
  TAL/PAL ratio: 2.0

B6: RM120-7: mutant TAL enzyme, SEQ ID NO:17 (protein)
chain: B3 chain with S149X, I202X, I540X
modifications: Mutant from Rhodotorula glutinis
[2]
  TAL/PAL ratio: 0.8

B7: B. subtilis: para-hydroxycinnamic acid decarboxylase (pdc2) from B. subtilis, SEQ ID NO:6, expressed in E. coli and purified (protein, listed as Bacillus subtilis)
chain: MENFIGSHMIYTYENGWEYEIYIKNDHTIDYRIHSGMVAGRWVRDQEVNIVKLTEGVYKVSWTEPTGTDVSLNFMPNEKRMHGIIFFPKWVHEHPEITVCYQNDHIDLMKESREKYETYPKYVVPEFAEITFLKNEGVDNEEVISKAPYEGMTDDIRAGRL
[3]
  Km: 1300 µM
